Measured values published in patent US8389676B2, “Biotinylation tag peptides” (Pacific Biosciences of California, Inc., priority 2010, dated 2013).
Changes are numbered by the printed parent chain. No end group written: not given here.

B1: Leu Asn Asp Leu Phe His Ala Gln Lys Ile Glu Trp His (protein)
chain: LNDLFHAQKIEWHHHHHHHHHHHMKHMPRKMYSCDFETTTKVEDCRVWAYGYMNIEDHSEYKIGNSLDEFMAWVLKVQADLYFHNLKFDGAFIINWLERNGFKWSADGLPNTYNTIISRMGQWYMIDICLGYKGKRKIHTVIYDSLKKLPFPVKKIAKDFKLTVLKGDIDYHKERPVGYKITPEEYAYIKNDIQIIAEALLIQFKQGLDRMTAGSDSLKGFKDIITTKKFKKVFPTLSLGLDKEVRYAYRGGFTWLNDRFKEKEIGEGMVFDVNSLYPAQMYSRLLPYGEPIVFEGKYVWDEDYPLHIQHIRCEFELKEGYIPTIQIKRSRFYKGNEYLKSSGGEIADLWLSNVDLELMKEHYDLYNVEYISGLKFKATTGLFKDFIDKWTYIKTTSEGAIKQLAKLMLNSLYGKFASNPDVTGKVPYLKENGALGFRLGEEETKDPVYTPMGVFITAWARYTTITAAQACYDRIIYCDTDSIHLTGTEIPDVIKDIVDPKKLGYWAHESTFKRAKYLRQKTYIQDIYMKEVDGKLVEGSPDDYTDIKFSVKCAGMTDKIKKEVTFENFKVGFSRKMKPKPVQVPGGVVLVDDTFTIK
notes: biotinylation peptide tested as N-terminal fusion: biotinylation peptide-His(10)-phi29 pol
B2: Leu Asn Asp Ile Val Glu Ala Gln Lys Ile Glu Trp His (protein)
chain: B1 chain with L4I, F5V, H6E
notes: as for B1

Molecular target: streptavidin (Streptomyces avidinii, UniProt P22629)
Sequence (P22629 25-183, species assumed): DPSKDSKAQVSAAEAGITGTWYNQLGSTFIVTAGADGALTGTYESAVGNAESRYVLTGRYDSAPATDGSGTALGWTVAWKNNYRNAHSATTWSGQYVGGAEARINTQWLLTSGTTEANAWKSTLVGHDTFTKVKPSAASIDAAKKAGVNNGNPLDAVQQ
Experiment: Degree of biotinylation assessed by HPLC as fraction bound to streptavidin
Format: binding
Conditions: fusion protein biotinylation peptide-His(10)-phi29 pol, biotinylated in vivo in E. coli co-expressing biotin ligase, Ni-NTA purified, 2-fold molar excess of streptavidin
Procedure: Each of the DNA sequences encoding the affinity peptides was added individually to the 5′ terminus of a His(10)-tagged phi29 DNA polymerase gene such that the polypeptide expressed from each construct was a fusion protein consisting of: N-terminus-biotinylation peptide-His(10)-phi29 pol-C-terminus. Each gene was expressed in E. coli cells co-expressing biotin ligase in culture medium containing biotin. These conditions are known to effect the in-vivo biotinylation of biotinylation peptides. Proteins were purified using Ni-NTA columns and then mixed with a 2-fold molar excess of streptavidin under conditions known to effect binding of streptavidin to biotinylated fusion proteins.
The degree of biotinylation of each protein was assessed by HPLC. […] None of the biotinylation peptides affected the polymerase activity when tested in a branching fraction assay performed, for example, as described in U.S. patent application No. 2010/0112645.

Row | Molecule | degree of biotinylation: bound to streptavidin
1 | B1 | approximately 50%
2 | B2 | approximately 50%
